One assay deals with T1, 人CRR9 (表面表达人CRR9的A549细胞) (human, UniProt Q96KA5 1-538).
T1 construct: whole, on cells; CRR9 as expressed by A549 cells; also called CLPTM1L; 顺铂耐药相关蛋白9
T1 sequence (looked up): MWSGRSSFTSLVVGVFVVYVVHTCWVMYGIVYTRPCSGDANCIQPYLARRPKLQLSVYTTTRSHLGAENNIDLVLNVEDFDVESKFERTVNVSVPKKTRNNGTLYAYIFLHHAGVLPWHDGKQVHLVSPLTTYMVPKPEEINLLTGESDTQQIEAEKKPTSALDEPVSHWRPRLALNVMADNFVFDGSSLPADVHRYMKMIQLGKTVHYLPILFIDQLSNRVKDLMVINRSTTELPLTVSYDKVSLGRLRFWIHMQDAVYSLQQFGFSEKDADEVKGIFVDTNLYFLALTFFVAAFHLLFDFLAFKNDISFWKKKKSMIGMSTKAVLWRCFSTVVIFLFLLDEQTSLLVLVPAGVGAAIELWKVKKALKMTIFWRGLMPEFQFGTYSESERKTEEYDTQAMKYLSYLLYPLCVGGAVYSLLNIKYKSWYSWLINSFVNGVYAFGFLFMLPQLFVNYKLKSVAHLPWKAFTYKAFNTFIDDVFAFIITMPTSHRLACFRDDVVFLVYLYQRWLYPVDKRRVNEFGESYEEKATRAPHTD
The assay can be described thus: flow cytometry on A549 cells.

The target of assay [1] is T2, 重组人CRR9蛋白 (human CRR9-TEV-Fc蛋白) (human, UniProt Q96KA5 32-284, biotin-labelled in the capture ELISA and the blocking ELISA (sites not given)).
T2 construct: range 32-284; Made in-house; The order of parts follows the printed name CRR9-TEV-Fc; also called 人CRR9-TEV-Fc; CRR9-生物素; not shown: TEV site; Fc
T2 sequence (looked up): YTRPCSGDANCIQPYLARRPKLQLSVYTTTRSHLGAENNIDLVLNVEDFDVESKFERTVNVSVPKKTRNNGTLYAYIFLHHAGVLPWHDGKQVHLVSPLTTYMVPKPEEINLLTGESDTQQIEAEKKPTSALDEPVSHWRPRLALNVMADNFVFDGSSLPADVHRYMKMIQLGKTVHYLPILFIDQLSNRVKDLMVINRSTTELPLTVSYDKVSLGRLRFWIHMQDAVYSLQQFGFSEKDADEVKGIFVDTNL
Briefly: capture ELISA: antibody captured on GAM(Fc), biotinylated human CRR9-TEV-Fc at 0.2 ug/ml, SA-HRP.

B1: 小鼠抗人CRR9单克隆抗体 A1C3G3B2 (antibody, V domains shown)
VH: QIQLVQSGPELKKPGETVKISCKASGYTFTNYGMSWVRQAPGKGLKWMGWINTNTGEPTYAEEFKGRFAFSLETSASTAYLQINNLKNEDTATYFCSRDYYYGGRGYFDYWGQGTTLTVSS
VL: QIVLTQSPAIMSASPGEKVTMTCSATSIVSYMHWYQQKSGTSPKRWIYDTSKLASGVPARFSGSGSGTSYSLTISSMEAADAATYYCQQWSYNPLTFGSGTKLELK
notes: Mouse monoclonal antibody purified from a hybridoma; also called 抗CRR9单克隆抗体
Consider B1, for which the binding result (with 人CRR9 (表面表达人CRR9的A549细胞); in assay [1]) was “binds” each time.

Values taken from patent CN115703835A (BOAOXIN BIOTECHNOLOGY NANJING CO LTD, dated 2023).
